Biological target: recombinant basigin (CD147), immunoglobulin domains 1 and 2 of the short isoform (aa 22-205) (UniProt P35613)
Experiment: SPR; basigin immobilised on a CM5 chip by amine coupling (950 RU); RH5.1 injected as a two-fold dilution series from 2 µM, 120 s at 30 µL/min, 300 s dissociation; 20 °C; 10 mM HEPES pH 7.4, 150 mM NaCl, 3 mM EDTA, 0.005% Tween-20, 2 mg/mL dextran, 1 mg/mL salmon sperm DNA; kinetic sensorgrams fitted to a global 1:1 model

Chain of UniProt P35613 (P35613 other isoform, or with tags, fused parts or gaps): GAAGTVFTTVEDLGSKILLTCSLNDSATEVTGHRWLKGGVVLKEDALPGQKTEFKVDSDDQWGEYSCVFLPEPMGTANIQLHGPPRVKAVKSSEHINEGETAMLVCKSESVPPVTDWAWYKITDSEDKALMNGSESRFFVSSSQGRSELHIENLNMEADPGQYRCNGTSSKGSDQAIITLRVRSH

Substance: RH5.1 protein vaccine (full-length Plasmodium falciparum reticulocyte-binding protein homolog 5, PfRH5, aa E26-Q526, with C-tag) (from UniProt Q8IFM5 26-526) (natural protein)
- Kd: 1200 nM
